# Patent US20040265963A1
# T1: biotinylated phosphorylated JAK2 WT peptide (p-JAK2 WT) (human (the JAK2 WT sequence is the same for both mice and humans))
# T1 chain: LPQDKEYYKVKEP
# Legend:
# [1] = target: Recombinant human JAK2 immobilized on agarose beads (human), O60674; assay: cell-based or functional assay
# [2] = target: T1, biotinylated phosphorylated JAK2 WT …; assay: solid phase binding assay, biotinylated peptide on immobilized Tkip (FIG. 4)
# Recombinant human JAK2 immobilized on agarose beads (human), O60674, sequence (O60674 whole entry): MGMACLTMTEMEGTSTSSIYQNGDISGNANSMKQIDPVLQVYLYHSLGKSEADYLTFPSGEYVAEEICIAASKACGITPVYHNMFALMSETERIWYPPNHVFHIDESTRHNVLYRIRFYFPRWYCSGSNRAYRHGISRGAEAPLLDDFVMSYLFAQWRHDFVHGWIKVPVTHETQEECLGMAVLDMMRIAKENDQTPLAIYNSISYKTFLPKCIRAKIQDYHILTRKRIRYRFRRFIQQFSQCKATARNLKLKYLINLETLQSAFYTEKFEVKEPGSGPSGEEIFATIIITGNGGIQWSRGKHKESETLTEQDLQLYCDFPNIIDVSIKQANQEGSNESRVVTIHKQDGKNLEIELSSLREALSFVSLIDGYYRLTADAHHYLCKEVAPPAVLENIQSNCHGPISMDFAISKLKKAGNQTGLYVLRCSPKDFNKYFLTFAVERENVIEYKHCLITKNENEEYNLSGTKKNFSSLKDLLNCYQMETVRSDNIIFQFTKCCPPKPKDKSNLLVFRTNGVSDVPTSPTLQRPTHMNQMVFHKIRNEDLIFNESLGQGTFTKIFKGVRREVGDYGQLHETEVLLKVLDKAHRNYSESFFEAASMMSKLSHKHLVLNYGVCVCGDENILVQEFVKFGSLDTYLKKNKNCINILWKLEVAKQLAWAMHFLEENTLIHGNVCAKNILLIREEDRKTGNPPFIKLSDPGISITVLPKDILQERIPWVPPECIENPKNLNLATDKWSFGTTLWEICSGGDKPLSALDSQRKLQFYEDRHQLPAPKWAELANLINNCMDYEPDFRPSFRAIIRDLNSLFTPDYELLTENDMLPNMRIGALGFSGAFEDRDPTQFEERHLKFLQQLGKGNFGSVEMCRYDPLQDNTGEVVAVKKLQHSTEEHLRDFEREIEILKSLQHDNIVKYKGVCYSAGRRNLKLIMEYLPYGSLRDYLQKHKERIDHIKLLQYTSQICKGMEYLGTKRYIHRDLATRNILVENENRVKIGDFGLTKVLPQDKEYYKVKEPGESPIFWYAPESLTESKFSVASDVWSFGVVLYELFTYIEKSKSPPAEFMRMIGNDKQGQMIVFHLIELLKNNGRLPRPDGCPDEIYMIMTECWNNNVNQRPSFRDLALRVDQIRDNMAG
binder,measurement,setting,value
"WLVFFVIFYFFR (modifications not checked) [Tkip (tyrosine kinase inhibitor peptide), …]",inhibition of 32P incorporation into JAK2/IFNGR-1 (Tkip at 50 µM),[1],> 95%
same,fold lower fifty percent endpoint concentration against unphosphorylated JAK2 WT,[2],9 fold
